From the PETadex activity labels come the findings set out here.

Substrate in the data set: BHET
To be noted: 120 h.

B1: unnamed (protein)
chain: MNSHRASRLVRAALAAGALLLSAAASAQTNPYQRGPNPTASSLEASRGPFSVRSFTVSRPSGYGAGTVYYPTNAGGTVGAIAIVPGFTARQSSINWWGPRLASHGFVVITIDTNSTLDQPSSRSSQQMAALRQVATLSGTSSSPIYNKVDTSRLGVMGWSMGGGGSLISARNNPSLKAAAPQAPWNSSTNFSSVTVPTLIIACENDTIAPVNSHASPFYNSMSRNPKQFLEINGGSHSCANSGNSNQALLGKKGVAWMKRFMDNDTRYTSFACSNPNSTRVSDFRVASCS
Regarding B1, the plate clearing result was “not clears the plate”.

B2: unnamed (protein)
chain: MFDDMNHTTQSKFSRLLQVSLATSALALSLGVQAQQTGADPTTASIEQAGPLAVANVKVATPSGYGSGTVYYPTTGSAYGLVSVTPGFTEGQSAINWLGPLLASHGFVVVTIGTKTILDVPTNRAKQMMAALAQVTALSATKTSPFAGKVDASRLAVMGHSMGGGGSLDAARDNPNLKASIPLAPWETTKDYSKTTVPTLIVSCESDAIAPVKDHANKFYDSFTPTLTKALLEMKGASHFCTNSSANAATKTLIGKYSISWLKRFVDGDTRYSPFLCGAPHQADLAGSLISTYKENCPY
For the protein B2, the plate clearing entry is on record as “not clears the plate”.

B3: unnamed (protein)
chain: MMKSIIARLAIGTSVLLFSVSAFSFTPGPTPDPDPDPNPNPCEVDCDFSRGPNPTASYLEAASGPYTVRTMRVSSSVTGFGGGTIHYPTGTTGKMGAIAVVPGFLAGESSISWWGPRLASHGFVVITIATNSAFDQPASREAQLGRALDYVIAQSNASGNAISGMVDSSRVGAMGWSMGGGGTLRIASGGRLSAAIPLAPWHTGSNDFNQISTPTMIIACENDGTAPVNSHASPFYNRIPASTDKAYLEINNGGHSCANGGGSNGGLLGKYGVSWMKRFIDKDTRYNQFLCGPNHASNSAISEYRETCNY
For the protein B3, the plate clearing entry is listed as “not clears the plate”.

B4: unnamed (protein)
chain: MNKSILEKMVVGTSALLFSLSAFSFTPDPTPDPDPEPEPCQGECDFTRGPAPTSSYLEASSGPYSVDTVGVSRSVSGFGGGTIYYPTSTSGTMGAIAIVPGFLAGESSISWWGPRLASHGFVVITIATNSTFDQPASRSTQLSRALDYVVSQSNSNSSPISGKVDSTRLGAMGWSMGGGGALRLASGNRLAAAIPLAPWNTGSNSFNQIDTPTLIFACENDTTARVGTHASPFYNRIPASTDKAYLEINNGSHSCANGGGSNGGLLGKYGVSWMKRFIDEDTRYSQFLCGPNHEANSAISEYRETCNY
Consider B4, for which the plate clearing entry is recorded as “not clears the plate”.

B5: unnamed (protein)
chain: MTIRPFVRNAVLAAGLLVGAASAQAQVAVFQENFSNGLGAFTASGTVSTGTGAARLQGCYGCTDGQIVSSAISTQGFTNLSLSFDRVTSGLYIGESGTAEFSVDGTNWTVVESTRVTSPGRVTFDLPASAAGQAALRLRFRIDARLSSETYTVDNVELTGTVGDTGGGTPGANPYAKGPDPTVALLEAGTGPFTYTRTTVSRTAASGYGGGTIYHPTGVAGPFGAIAISPGYTAYQSSISWLGERLASHGFVVITIDTFTTSDQPSSRATQLMAALRQLVAYGNTSSHPIYGKVDPNRLGVMGHSMGGGGSLIAARDNPSLKAAVPLTPWNTSSNFTAVQVPTLVVGCEADTVAPVAQHASPFYNNIPSTTKKAYLELANASHFCPVTGNGYTRLLGKYGVAWMKRFVDNDTRYSPFLCGAPHRADLSNGQLSAYRENCPY
On to B5, for which the plate clearing entry is “clears the plate (z > 3 vs empty vector)”.

B6: unnamed (protein)
chain: MRTRGTRPLRRLAAIFLLALVIAACDTKGPDPTEQILTASSGPFGVATLAVPSSAGFGGGTIYYPTGVEGPFAVISVTPGFTETAASLDWGPRLASHGFVAIVINTSNIFEDPTTRSNEQRQALTYAAAQSDSASSPIHGLVDGNRRGVTGHSMGGGGTLISAQADPAIRAAVPLAPWNGSPTFSGITVPTLFIACQNDVIAPVANHASPMYNSIPASTHKSYLSIAGGDHFCANAASGGSGQVGKFVVAFFKRFLDGDTRYDPWVCGASKPAVTSVINEVRSTCPF
In the case of B6, the plate clearing result is on record as “not clears the plate”.

B7: unnamed (protein)
chain: MKITAHKTARGVANFAKASLFVAALAVTSLANAQYQKGPDPTVSALERNGSFATRSTTVSRLSASGFGGGTIYYPTASGSYGAIAVSPGFTAYQSSISWIGERLSSHGFVVITIDTITTSDQPESRGNQLKAALDKVVSLSRTSSSPLYNKVDASRLGVAGHSMGGGGTLAAARDNPSYKAAVPLAPWHTTKSWSRVSVPTLIIGGSTDAIAGVALHSIPFYTSLPSSTKKAYMELSGEGHFYPQLPSNYPIVGRYMISWFKRFMDSDTRYSPFLCGAQHQADLRLFGPFSDYRENCPY
In the case of B7, the plate clearing entry was “not clears the plate”.

B8: unnamed (protein)
chain: MVRGVRAALRLASLVAVAVLPACGSGGGSSPTPASTPMATPIAPTPAPTLAPAPPTSPPFTRGPAPSTSALEATEGPFAVAQLTIDRTAAAGYGAGTVSYPTDTREGPFGAIAVSPGYTGVQRSMQWFGPRLASHGFVVIVIDTLSLTNNAEARAAQLIAALNQLIALSGTSGHPLQGKVDGNRLGVIGHSYGGGGALVAARDNPALKAAVPLAPFYESNDFSRLTVPTLVVGCQRDTVAAVSQRAIPMYESIPASVSKAYLELAGGDHLCVETGNGNKAIQGKYTVAWMKRFLDDDVRYSPYLCGSPHQADLAGDAVSAYRETCPY
In the case of B8, the plate clearing result is listed as “not clears the plate”.

B9: unnamed (protein)
chain: MKSTQGSKFALSLLTAGTLLFSMSALGFNAPDPDPQPDPDPCEGDCGYTRGPDPTTSLLEASSGPYSVRTDSVSSRVSGFSGGTIYYPTGTSGRMGAIVVAPGFLSPESSISWWGPRLASHGFVVITVQINSGYDQPASRQAQMDAALDHVISESNSSSSPISGMVDSSRLGAMGWSMGGGGALRMAAGDRLSAAIPLAPWHSGRDNFDQIRTPTLIFACENDSVAPVRSHASPFYNDIPNSTSKAFFEINGGSHTCANGGRSNGDLLGRIGVSWMKRHIDQDTRYNQFLCGPNHESDGDISEYRGTCPL
Regarding B9, the plate clearing result is “not clears the plate”.

B10: unnamed (protein)
chain: MTLTSTLRRQTRTTATATVLAAAAALALCAAPASAQQTGPNPTSSSLNATSGPFAVSSVSVVAPTGFGGGTIYYPTTAGQYGVVAISPGFTATESSIAWLGRRMATHGFVVVTINTLTTLDQPASRATQLMAALNHVVNSASSTVRSRVDPNRRAVAGHSMGGGGALIAAENNPGLKAALPLTPWNLTTNFSDVQVPTLIVGADGDTVAPAAIHARPFYASLSSSVRKAYAELNFSTHFTPNTTNTPIGRYGVTWMKRFVDGDTRYSTFLCGAEHNAYNTALVFERYSQNCPY
On to B10, for which the plate clearing result is recorded as “not clears the plate”.

B11: unnamed (protein)
chain: MKTSRTRRLALAAAALLLSVAAQAQSSNPYQRGPDPTAASLEASSGPFAVSTTTVSSASGFGGGTIYYPTNTEGPFAAIAVVPGFTGTQSSISWWGPRLASHGFVVITIDTNSTFDQPDSRATQLMAALNYVVSQSNTSSSPIYGKVDSNRLGVMGHSMGGGGTLIAARDNPTLKAAIPLAPWNSSTNFSSVTVPTLIIACENDTVAPVSSHASPFYNSIPSSTDKAYLEINGGDHFCANSGNSNKAILGKYGVAWMKRFLDNDTRYDPFLCGAPHQADGSAISEYRDNCPY
B11: the plate clearing entry is listed as “clears the plate (z > 3 vs empty vector)”.

B12: unnamed (protein)
chain: MKHDRRYRWGRLAGLAALLLAPVAAQAQTVLFSEDFEGGLGAFSAGGNVFTATVFNGTSGVRLRGGSSDGVITSPPISTEGFSEVTLFFERTTDGSLDFGEFGIAEVSVDGGATFAVVEATQGGPAAVSIPLGAAAADQAAVVLRFRIAASSFFEDIEVDNVVLEGVGSGDPGPGPDPDPGPDPDPDPDPEPEPDNPFARGPDPTEATLEASSGPFAVDSFRPSSTPGFGAGTIWYPSGTNEGPFAAIAVAPGFVGGESTIDWLGSRLASHGFVVITISTSSLFDFPDSRASQLLAALDIVIAESNGSSPISGLVDPDRTGLSGHSMGGGGSLIATEDHPSIDAVVPLAPWNPSTNFSAIDQPTLIVACENDTVAPVNQHASPMYESISSSVDKAFLEIDGADHFCVNSGNAQQDTLGKFIVSWMKRFLDQDTRYDPFLCGPDHEADPDISEFRDTCPF
For B12, the plate clearing entry is “not clears the plate”.

B13: unnamed (protein)
chain: MNALSWTPSPTPNPDPTPDPTPCQGDCDFTRGPNPTLSSVATMGPYSVSTQSVSSSVSGFGGGTIHFPTNTAGTMGAIAVAPGFLSPESSIKWWGPRLASHGFVVITIATNSVFDQPNSRETQISRALDYVINQSNSSNSAISGMVDNTRVGAMGWSMGGGGALRLASGDRLSAAIPLAPWHQGSNSFNQLETPTLIIACENDVVAPVNNHASPFYNAIPSTTDKALLEINNGAHSCANGGGTNGGLLTKYGVSWMKRFIDNDLRYDQFLCGPDHAANNAVSEYRGTCNY
On to B13, for which the plate clearing result was “not clears the plate”.

B14: unnamed (protein)
chain: MSAADRMCPFRTLLMLLGLSMMARPTRASMRRRGRHSSITTGDSMTHIAIGLRHWAQVAVLLASVAMSALAAAQNNPYAKGPDRTTADLEAELGSFAVASASIPRANASGFGGGTIYYPTASGSCGAISISPGYTATQVNIAWLGPRLASRGFVVITIDTFTTSDLPDSRATQLQAALNQAVSLSQTAGHVIYGKVDARRLAVAGDSLGGGGALLAGLNNPMLKAAVGLVPYSYTQNFSTEQVPTLMIGGQKDTTATPSKHAIAFYNSIPSTTDKAYMELAGADHYLPHRTQYFPVIGRYMIAWYKRFVDNDTRYSPFLCGAIQQADVANTALVSKYLQNCSY
Turning to B14, the plate clearing entry was “not clears the plate”.
